Measured values reported in doi:10.1101/629683.

Molecular target: mCh-vinT12-cBAK (constitutively active, opened form of full-length vinculin, mCherry-tagged, with cBAK) (gallus gallus) (UniProt P12003)
Experiment: Fluorescence Loss After Photoactivation

Chain of UniProt P12003 (P12003 whole entry): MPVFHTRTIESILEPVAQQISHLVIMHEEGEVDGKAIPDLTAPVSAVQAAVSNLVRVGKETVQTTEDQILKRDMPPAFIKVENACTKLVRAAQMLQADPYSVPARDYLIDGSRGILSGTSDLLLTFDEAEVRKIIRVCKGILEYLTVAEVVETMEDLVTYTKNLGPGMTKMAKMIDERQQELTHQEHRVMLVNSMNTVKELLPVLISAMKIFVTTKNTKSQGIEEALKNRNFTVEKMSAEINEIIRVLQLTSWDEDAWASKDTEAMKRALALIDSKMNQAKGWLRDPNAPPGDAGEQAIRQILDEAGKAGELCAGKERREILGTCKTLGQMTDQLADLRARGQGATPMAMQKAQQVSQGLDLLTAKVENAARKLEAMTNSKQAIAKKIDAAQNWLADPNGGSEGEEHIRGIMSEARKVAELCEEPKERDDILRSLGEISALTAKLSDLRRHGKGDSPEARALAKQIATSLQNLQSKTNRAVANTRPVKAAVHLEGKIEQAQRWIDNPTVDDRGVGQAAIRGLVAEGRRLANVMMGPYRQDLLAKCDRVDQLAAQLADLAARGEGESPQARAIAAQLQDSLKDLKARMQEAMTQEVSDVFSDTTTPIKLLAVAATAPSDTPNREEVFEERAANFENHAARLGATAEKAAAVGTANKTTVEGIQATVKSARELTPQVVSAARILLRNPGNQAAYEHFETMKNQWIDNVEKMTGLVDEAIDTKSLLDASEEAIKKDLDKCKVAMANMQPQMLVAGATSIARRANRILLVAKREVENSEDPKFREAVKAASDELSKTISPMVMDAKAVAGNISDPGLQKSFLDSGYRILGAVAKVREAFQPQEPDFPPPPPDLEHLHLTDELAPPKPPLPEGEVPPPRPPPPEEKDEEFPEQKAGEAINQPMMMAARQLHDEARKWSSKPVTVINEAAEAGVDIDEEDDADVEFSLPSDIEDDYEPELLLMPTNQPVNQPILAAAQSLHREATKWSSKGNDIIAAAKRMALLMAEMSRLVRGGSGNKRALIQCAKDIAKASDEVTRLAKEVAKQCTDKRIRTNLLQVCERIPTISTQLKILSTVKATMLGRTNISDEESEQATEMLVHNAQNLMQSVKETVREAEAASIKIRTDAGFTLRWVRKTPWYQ

mobile fraction (Mf) in FLAP: < 20%
Substance: Photo-Activatable (PA) GFP-TalinFL (from UniProt P26039 1-2541) (natural protein)
